# Measured values as given in US20090282582A1, “ENVIRONMENTAL STRESS RESPONSIVE PROMOTER AND METHOD OF TISSUE-SPECIFIC GENE EXPRESSION USING THE SAME” (RIKEN, priority 2006, published 2009).
# B1: Promoter of RAFL09-07-M01: environmental stress responsive promoter DNA, SEQ ID NO: 7, upstream of At4g20830 (protein containing FAD-binding domain) (nucleic acid, listed as Arabidopsis thaliana)
# DNA: AGGTGCAGGAGATTGAATCGAAGCTTCGTTTATAAAACAATGTACATAGTTGTTTAAAGTCTTAAAGTTGGACTTTTCTTTTGCTCAGCCCCACAAACCCAATTGGATTATAATACCGACGCCGACCAATCAATGCTACGACCATTGACTTATAAAACATACATCGGACACACACAAAAAAAAACTACACTTTTTGTATCAGCAATCTTTTTAGTTATTTGTTTTCAGTTATATAAATCAATGTTTGTGTTTTCTAATAACAGTTATTAGTATGCTAGTGATGCATGGTTAAAAAAAAAAAAAGAAATTTCAAATATATATTTTAATTTGCATTATGTAAAATATTTTAAAAATAAGTCCCTAGTACCAATGGAGTGTTTTTGTTTAAGCTACAAGTGAATTATAATACGTAGTAATCTTGATTCAAATGGAAAGATTTACCATGTGGGTCTATACCAAAACCGTGTCCTTTTTCATATGTATGAATCTCTAATAGTTGCTTCTTTTGACTAGAATAATTTGTAAAGTAACTCCTAATTCATAAATATTGAAGATTAGTCTGATTTATTATTAATATGCAAATCTCTGATTAATAAGAAATAAATTATAATAGAAATATTGATGTGTACTGATCATCTTTTAATAAATGTTTGAGACTACAAATACTATAATGAATCAAATGAACATAAATGTATAGATGAACTGAATAAAATTCCAGATACACCTTGAATTAAATATGTATTCATAGTATTTTTTTTTAAAATGAAATCTGGATTTTAAATCCTTATTATTCAAAAAAATCTTCTCCTTTGATATTTTTGCTATAACAAATTAAAATAAAATCTGTAATCACTAATCATATCCCTTAACTCCCTTTAATATCTTTTGTTGACCAAAACAAATATTTTTTTGTTATATGCAACGAATAAAAAAACATTGAAAGTACTTTCCAAAAACAAAACACGTCTTCTTCTCCCTGCGGTTATAAATAGACACGGATAAGTACAAAGAACAGAGGAACACGAGACCCAAGAAAAAGATCTCAAA
# What was measured:
# [1] = tested on: Arabidopsis thaliana (columbia ecotype) plant body; experiment: full-length cDNA microarray analysis of gene expression levels after environmental stress application; settings: in vivo
# Summary of the method: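 Three-week-old Arabidopsis grown at 22° C. on a 16 h light/8 h dark cycle were stressed by 4° C. cold, 2 h open-plate dehydration, or root application of MS medium containing 250 mM NaCl or 100 μM ABA. Total RNA/mRNA from stressed and unstressed plants was reverse transcribed with Cy3/Cy5 dUTP and hybridized to full-length cDNA microarrays.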
# [2] = tested on: transgenic Arabidopsis thaliana plant body (luciferase reporter gene); experiment: luciferase assay of promoter::LUC transgenic plants after environmental stress application; format: in vivo; settings: for Tissue in which specific induction of expression is realized: Salt stress (250 mM NaCl)
# Summary of the method: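 Arabidopsis lines carrying promoter::luciferase, 10 days after sowing on MS agar, sprayed with 1 mM luciferin (0.01% Triton-X), 5 min dark, imaged by ARGUS before stress. Stresses: 4° C, 2 h air dehydration, 250 mM NaCl or 100 μM ABA to roots; luminescence at 2, 5, 10 h.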
molecule,measurement,setting,value
B1,Environmental stress type to which the promoter responds,[1],Dehydration and salt
same,Tissue in which specific induction of expression is realized,[2],Stem and leaf tissue and root tissue
same,Tissue in which specific induction of expression is realized,[2]; listed as promoter of RAFL09-07-M01,stem and leaf tissue and root tissue
same,activity to induce gene expression compared with other promoters,[2]; in vivo,lower than that of other promoters
same,Tissue allowing specific induction,[2]; summary over stress types,Stem and leaf tissue and root tissue
